Measurements published in PMC9751785, “Characterization and Identification of a novel chromosome-encoded metallo-β-lactamase WUS-1 in Myroides albus P34” (Frontiers in Microbiology, 2022).

What was measured:
[1] = target: T1, WUS-1 (Myroides albus, UniProt A0A6I3LH21, K23R); experiment: spectrophotometric imipenem hydrolysis, inhibition; assay type: biochemical
T1 construct: gene bla; mature domain, signal peptide removed (predicted cleavage between 19 and 20, Ala/Gln); pCold I in E. coli BL21, His-tag cut with thrombin; zinc enzyme

[2] = tested on: C[C@@H](O)[C@H]1C(=O)N2C(C(=O)O)=C(S[C@@H]3CN[C@H](C(=O)N(C)C)C3)[C@H](C)[C@H]12; experiment: continuous spectrophotometric hydrolysis assay, Michaelis-Menten fit; assay type: biochemical, Myroides albus; settings: 10 mM phosphate pH 7.4, 50 μM ZnCl2, 30 °C, SD within 15%
Excerpt: (§1) continuous spectrophotometric hydrolysis assay, Michaelis-Menten fit on WUS-1

[3] = tested on: CC1(C)S[C@@H]2[C@H](NC(=O)[C@H](C(=O)O)c3ccsc3)C(=O)N2[C@H]1C(=O)O; experiment: as above; assay type: biochemical, Myroides albus; settings: 10 mM phosphate pH 7.4, 50 μM ZnCl2, 30 °C, SD within 15%
Excerpt: as §1

[4] = tested on: Cc1nnc(SCC2=C(C(=O)O)N3C(=O)[C@@H](NC(=O)Cn4cnnn4)[C@H]3SC2)s1; experiment: as above; assay type: biochemical, Myroides albus; settings: 10 mM phosphate pH 7.4, 50 μM ZnCl2, 30 °C, SD within 15%
Excerpt: as §1

[5] = tested on: C[C@@H](O)[C@H]1C(=O)N2C(C(=O)O)=C(SCCN=CN)C[C@H]12; experiment: as above; assay type: biochemical, Myroides albus; settings: 10 mM phosphate pH 7.4, 50 μM ZnCl2, 30 °C, SD within 15%
Excerpt: as §1

[6] = tested on: CC1(C)S[C@@H]2[C@H](NC(=O)C(C(=O)O)c3ccccc3)C(=O)N2[C@H]1C(=O)O; experiment: as above; assay type: biochemical, Myroides albus; settings: 10 mM phosphate pH 7.4, 50 μM ZnCl2, 30 °C, SD within 15%
Excerpt: as §1

[7] = tested on: CO[C@@]1(NC(=O)Cc2cccs2)C(=O)N2C(C(=O)O)=C(COC(N)=O)CS[C@@H]21; experiment: as above; assay type: biochemical, Myroides albus; settings: 10 mM phosphate pH 7.4, 50 μM ZnCl2, 30 °C, SD within 15%
Excerpt: as §1

[8] = tested on: CC1(C)S[C@@H]2[C@H](NC(=O)[C@H](N)c3ccccc3)C(=O)N2[C@H]1C(=O)O; experiment: as above; assay type: biochemical, Myroides albus; settings: 10 mM phosphate pH 7.4, 50 μM ZnCl2, 30 °C, SD within 15%
Excerpt: as §1

T1 sequence (A0A6I3LH21 entry or part of it K23R): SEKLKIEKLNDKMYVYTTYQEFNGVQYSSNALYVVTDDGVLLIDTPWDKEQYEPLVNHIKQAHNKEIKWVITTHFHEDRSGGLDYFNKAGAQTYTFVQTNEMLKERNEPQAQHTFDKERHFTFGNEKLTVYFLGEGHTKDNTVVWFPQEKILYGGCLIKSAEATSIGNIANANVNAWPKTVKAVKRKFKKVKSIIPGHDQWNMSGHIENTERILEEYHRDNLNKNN

O=C(O)CN(CCN(CC(=O)O)CC(=O)O)CC(=O)O [EDTA]
IC50 [1]: 71.3 µM

WUS-1 (Myroides albus; K23R)
Km [2]: 147.4 µM | kcat [2]: 477 s⁻¹ | kcat/Km [2]: 3.24e+06 M⁻¹ s⁻¹ | Km [3]: 827.4 µM | kcat [3]: 703 s⁻¹ | kcat/Km [3]: 850000 M⁻¹ s⁻¹ | Km [4]: 59.86 µM | kcat [4]: 33.9 s⁻¹ | kcat/Km [4]: 570000 M⁻¹ s⁻¹ | Km [5]: 334.8 µM | kcat [5]: 1340 s⁻¹ | kcat/Km [5]: 3.99e+06 M⁻¹ s⁻¹ | Km [6]: 581 µM | kcat [6]: 1120 s⁻¹ | kcat/Km [6]: 1.93e+06 M⁻¹ s⁻¹ | Km [7]: 44.33 µM | kcat [7]: 14.2 s⁻¹ | kcat/Km [7]: 320000 M⁻¹ s⁻¹ | Km [8]: 290.2 µM | kcat [8]: 2920 s⁻¹ | kcat/Km [8]: 1.01e+07 M⁻¹ s⁻¹
